Measured values reported in patent publication US20230203162A1 (NUMAB THERAPEUTICS, published 2023).
Positions count from the first letter of the chain named. In names and notes the source's numbering stands. Values belong to the binder of their own block, whether it stands above or below them.

Tests used:
[1] = molecular target: T1, recombinant human MSLN (purchased from Peprotech) (human, UniProt Q13421 296-598, limits assumed); assay: SPR (Biacore T200), human MSLN; which of the two formats (MSLN immobilized / antibody captured) not given
T1 construct: Bought protein; also called recombinant human mesothelin

[2] = molecular target: T2, plasma-membranous human MSLN on cell lines (H226, HPAC, H292, OVCAR-3, MeT-5A) (human, UniProt Q13421 296-598); assay: flow cytometry on HPAC cells, protein L-PE, 4PL fit
T2 construct: whole, on cells; also called human MSLN on H226 cells; mesothelin on target cells

[3] = molecular target: T3, human recombinant CD3ε protein (Sino Biological) (human, UniProt P07766 23-126); assay: SPR, CD3ε amine-coupled to CM5, antibody injected
T3 construct: Bought protein; also called recombinant human CD3ε; human CD3ε

[4] = molecular target: T2, plasma-membranous human MSLN on cell …; assay: cell-based or functional assay
[5] = molecular target: T2, plasma-membranous human MSLN on cell …; assay: cell-based or functional assay; remark: listed apart in the source
[6] = molecular target: T3, human recombinant CD3ε protein (Sino …); assay: SPR, CD3ε amine-coupled to CM5, antibody injected; footnote: ka1 of a two-state fitting model
[7] = molecular target: T2, plasma-membranous human MSLN on cell …; assay: cell-based or functional assay; remark: listed apart in the source
[8] = molecular target: T2, plasma-membranous human MSLN on cell …; assay: flow cytometry on H226 cells
[9] = molecular target: T2, plasma-membranous human MSLN on cell …; assay: flow cytometry on H292 cells
[10] = molecular target: T2, plasma-membranous human MSLN on cell …; assay: cell-based or functional assay; remark: listed apart in the source
[11] = molecular target: T2, plasma-membranous human MSLN on cell …; assay: flow cytometry on H226 cells, protein L-PE, 4PL fit
[12] = molecular target: T3, human recombinant CD3ε protein (Sino …); assay: SPR, CD3ε amine-coupled to CM5, antibody injected; footnote: kd1 of a two-state fitting model
[13] = molecular target: T2, plasma-membranous human MSLN on cell …; assay: flow cytometry on Met-5A cells, protein L-PE, 4PL fit
[14] = molecular target: T2, plasma-membranous human MSLN on cell …; assay: cell-based or functional assay; remark: listed apart in the source
[15] = molecular target: T2, plasma-membranous human MSLN on cell …; assay: flow cytometry on H292 cells, protein L-PE, 4PL fit
[16] = molecular target: T2, plasma-membranous human MSLN on cell …; assay: cell-based or functional assay; remark: listed apart in the source
[17] = molecular target: soluble mesothelin (sMSLN); assay: cell-based or functional assay
[18] = molecular target: T2, plasma-membranous human MSLN on cell …; assay: flow cytometry on HPAC cells
[19] = molecular target: T2, plasma-membranous human MSLN on cell …; assay: cell-based or functional assay; remark: listed apart in the source
[20] = molecular target: soluble mesothelin (sMSLN); assay: cell-based or functional assay; remark: listed apart in the source
[21] = molecular target: human serum albumin (hSA, Sigma-Aldrich A3782) (human, UniProt P02768 25-609); assay: SPR, hSA amine-coupled to CM5, antibody injected, pH 5.5, 1:1 Langmuir

Kd [1]: 1060 pM
koff [1]: 0.000421 s⁻¹
kon [1]: 398000 M⁻¹ s⁻¹
EC50 [2]: 1480 pM
max. binding (MFI) [2]: 17500 MFI
Kd [3]: 20000 pM
EC50 CD8+ T cell activation, H292 cells [4]: 114 pM
EC50 CD8+ T cell activation, HPAC cells [4]: 12.2 pM
EC50 CD8+ T cell activation, Met-5A cells [5]: 544 pM
kon [6]: 117000 M⁻¹ s⁻¹
EC50 CD8+ T cell activation with H226 cells, 50 ng/ml MSLN [7]: 7.85 pM
EC50 CD8+ T cell activation with H226 cells, 500 ng/ml MSLN [7]: 42.4 pM
EC50 CD8+ T cell activation with H226 cells, no MSLN [7]: 1.99 pM
fold binding against PRO1872 [8]: 3 fold
fold lower binding against PRO1872 [9]: 2 fold
EC50 [11]: 659 pM
max. binding (MFI) [11]: 362000 MFI
koff [12]: 0.00391 s⁻¹
EC50 [13]: 128 pM
max. binding (MFI) [13]: 7950 MFI
EC50 [15]: 1030 pM
max. binding (MFI) [15]: 6960 MFI
fold CD8+ T cell activation potency against PRO1872, HPAC cells [16]: 4 fold
fold binding against PRO1872 [18]: 1.5 to 2 fold
B1: PRO2000 (MATCH4, biMSLNhigh KD×CD3×hSA) (other)
chain 1: DIQMTQSPSSLSASVGDRVTITCQASQNIYSNLAWYQQKPGKAPKLLIYDASDLASGVPSRFSGSGSGTDFTLTISSLQPEDFATYYCQQVRSSSDIDNPFGTGTKVTVLGGGGGSGGGGSGGGGSGGGGSQVQLVESGGGLVQPGGSLRLSCAASGFSLSSYAMGWVRQAPGKGLEWIGYISTINNTYYASWAKGRFTISRDNSKNTVYLQMNSLRAEDTAVYYCAREIRSGWVDYGFSIWGQGTLVTVSSGGGGSGGGGSEVQLVESGGGLVQPGGSLRLSCAASGFSLSSYDMSWVRQAPGKGLAWIGASYASGPTYYASWAKGRFTISRDNSKNTVYLQMNSLRAEDTATYFCARGGWTGTSHSNIWGQGTLVTVSSGGGSGGGSEVQLVESGGGLVQPGGSLRLSCAASGFSFSSSYWICWVRQAPGKCLEWVGCVFTGDGTTYYASWAKGRFTISRDNSKNTVYLQMNSLRAEDTATYFCARPVSVYYYGMDLWGQGTLVTVSS
chain 2: DIQMTQSPSSLSASVGDRVTITCQASQNIYSNLAWYQQKPGKAPKLLIYDASDLASGVPSRFSGSGSGTDFTLTISSLQPEDFATYYCQQVRSSSDIDNPFGTGTKVTVLGGGGGSGGGGSGGGGSGGGGSQVQLVESGGGLVQPGGSLRLSCAASGFSLSSYAMGWVRQAPGKGLEWIGYISTINNTYYASWAKGRFTISRDNSKNTVYLQMNSLRAEDTAVYYCAREIRSGWVDYGFSIWGQGTLVTVSSGGGGSGGGGSDVVMTQSPSSLSASVGDRVTITCQASQIISSRSAWYQQKPGQPPKLLIYQASKLASGVPSRFSGSGSGTDFTLTISSLQPEDFATYYCQCTYIDSNFGAFGCGTKLTVLGGGSGGSDIQMTQSPSSLSASVGDRVTITCQSSQSVFSNNYLAWFQQKPGQSPKRLIYSASTLASGVPSRFSGSGSGTDFTLTISSLQPEDFATYYCLGSYACSSADCYVFGTGTKVTVLG
notes: Heterodimer; also called biMSLN.CD3
EC50 target cell killing, H292 cells [4]: 652 pM
EC50 target cell killing, HPAC cells [4]: 40.8 pM
EC50 target cell killing, H226 cells (flow cytometry cytotoxicity assay with PBMCs) [5]: 0.07 pM
EC50 target cell killing, Met-5A cells [5]: 145 pM
EC50 target cell killing, H226 cells, 100 ng/ml sMSLN [10]: 3.45 pM
EC50 target cell killing, H226 cells, no sMSLN [10]: 0.7 pM
max. killing, H226 cells, 100 ng/ml sMSLN [10]: 58.5%
max. killing, H226 cells, no sMSLN [10]: 49.4%
EC50 H226 target cell killing, 50 ng/ml soluble mesothelin [14]: 31.2 pM
EC50 H226 target cell killing, 500 ng/ml soluble mesothelin [14]: 165 pM
EC50 H226 target cell killing, no mesothelin [14]: 9.73 pM
fold killing potency against PRO1872, H226 cells [16]: 75 fold
fold reduction of H226 killing potency with 500 ng/ml sMSLN [17]: 17 fold
shift of H226 killing potency with 100 ng/ml sMSLN [17]: 5 fold

EC50 [2]: 1010 pM
max. binding (MFI) [2]: 18000 MFI
fold binding against PRO1872 [8]: 3 fold
fold lower binding against PRO1872 [9]: 2 fold
EC50 [11]: 524 pM
max. binding (MFI) [11]: 363000 MFI
EC50 [13]: 62.8 pM
max. binding (MFI) [13]: 7480 MFI
EC50 [15]: 1300 pM
max. binding (MFI) [15]: 6250 MFI
fold binding against PRO1872 [18]: 1.5 to 2 fold
B2: PRO2100 (MATCH4) (other)
chain 1: B1 chain 1 with N186A
chain 2: B1 chain 2 with N186A
notes: Variant of PRO2000 with anti-MSLN 54-01-G02-sc01 N66A (potential glycosylation site mutated)
EC50 target cell killing, H226 cells, 100 ng/ml sMSLN [10]: 3.56 pM
EC50 target cell killing, H226 cells, no sMSLN [10]: 1.54 pM
max. killing, H226 cells, 100 ng/ml sMSLN [10]: 58.9%
max. killing, H226 cells, no sMSLN [10]: 46.3%
shift of H226 killing potency with 100 ng/ml sMSLN [17]: 2 fold

Kd [1]: 187 pM
koff [1]: 4.96e-05 s⁻¹
kon [1]: 265000 M⁻¹ s⁻¹
EC50 [2]: 2160 pM
max. binding (MFI) [2]: 33300 MFI
Kd [3]: 12100 pM
EC50 CD8+ T cell activation, H292 cells [4]: 34.1 pM
EC50 CD8+ T cell activation, HPAC cells [4]: 47.2 pM
EC50 CD8+ T cell activation, H226 cells [5]: 0.09 pM
EC50 CD8+ T cell activation, Met-5A cells [5]: 10.9 pM
kon [6]: 293000 M⁻¹ s⁻¹
Fold-diff Window (mean Met-5A EC50 / mean H226 EC50) [19]: 1.1 fold
EC50 CD8+ T cell activation with H226 cells, 50 ng/ml MSLN [7]: 200 pM
EC50 CD8+ T cell activation with H226 cells, 500 ng/ml MSLN [7]: 1120 pM
EC50 CD8+ T cell activation with H226 cells, no MSLN [7]: 22.9 pM
EC50 [11]: 1570 pM
max. binding (MFI) [11]: 467000 MFI
koff [12]: 0.00508 s⁻¹
EC50 [13]: 194 pM
max. binding (MFI) [13]: 11200 MFI
EC50 [15]: 709 pM
max. binding (MFI) [15]: 12200 MFI
Kd [21]: 175 pM
koff [21]: 6.39e-05 s⁻¹
kon [21]: 366000 M⁻¹ s⁻¹
B3: PRO1872 (scMATCH3, MSLNlow KD×CD3×hSA) (other)
chain: DVVMTQSPSSLSASVGDRVTITCQASQIISSRSAWYQQKPGQPPKLLIYQASKLASGVPSRFSGSGSGTDFTLTISSLQPEDFATYYCQCTYIDSNFGAFGCGTKLTVLGGGGGSEVQLVESGGGLVQPGGSLRLSCAASGFSLSSYDMSWVRQAPGKGLAWIGASYASGPTYYASWAKGRFTISRDNSKNTVYLQMNSLRAEDTATYFCARGGWTGTSHSNIWGQGTLVTVSSGGGGSGGGGSGGGGSGGGGSDIQMTQSPSSLSASVGDRVTITCQSSQSVFSNNYLAWFQQKPGQSPKRLIYSASTLASGVPSRFSGSGSGTDFTLTISSLQPEDFATYYCLGSYACSSADCYVFGTGTKVTVLGGGGGSEVQLVESGGGLVQPGGSLRLSCAASGFSFSSSYWICWVRQAPGKCLEWVGCVFTGDGTTYYASWAKGRFTISRDNSKNTVYLQMNSLRAEDTATYFCARPVSVYYYGMDLWGQGTLVTVSSGGGGSGGGGSDIQMTQSPSSLSASVGDRVTITCQASESIGNYLAWYQQKPGKAPKLLIYSASTLASGVPSRFSGSGSGTDFTLTISSLQPEDFATYYCQSTDYGDSYIFGTGTKVTVLGGGGGSGGGGSGGGGSGGGGSEVQLVESGGGLVQPGGSLRLSCAASGISVSNDYYMCWVRQAPGKGLEWIGCISTYIGNTHYASWAKGRFTISRDNSKNTVYLQMNSLRAEDTAVYYCAKNAGYPGYRYAIDLWGQGTLVTVSS
notes: also called MSLN.CD3
EC50 target cell killing, H292 cells [4]: 91 pM
EC50 target cell killing, HPAC cells [4]: 30.3 pM
EC50 target cell killing, H226 cells [5]: 5.31 pM
EC50 target cell killing, Met-5A cells [5]: 8.88 pM
average mean H226 EC50, cell killing (LDH release) [19]: 120 pM
average mean Met-5A EC50, cell killing (LDH release) [19]: 138 pM
EC50 target cell killing, H226 cells, 100 ng/ml sMSLN [10]: 130 pM
EC50 target cell killing, H226 cells, no sMSLN [10]: 13.4 pM
max. killing, H226 cells, 100 ng/ml sMSLN [10]: 60.7%
max. killing, H226 cells, no sMSLN [10]: 54%
EC50 H226 target cell killing, 50 ng/ml soluble mesothelin [14]: 636 pM
EC50 H226 target cell killing, 500 ng/ml soluble mesothelin [14]: 4650 pM
EC50 H226 target cell killing, no mesothelin [14]: 43.9 pM
fold killing potency against PRO2000, H292 cells [16]: 7 fold
fold killing potency against PRO2000, MeT-5A cells [16]: 16 fold
fold lower H226 killing potency against PRO2000, no sMSLN [16]: 20 fold
fold lower H226 killing potency against PRO2100, no sMSLN [16]: 10 fold
fold reduction of H226 killing potency with 500 ng/ml sMSLN [17]: 106 fold
shift of H226 killing potency with 100 ng/ml sMSLN [17]: 10 fold
Delta 0-50 ng/mL sMSLN (x-fold change in H226 killing potency) [20]: 8.5 fold
Delta 0-500 ng/mL sMSLN (x-fold change in H226 killing potency) [20]: 78.2 fold
